Assay results published in the DeepSol protein solubility set.

Assay: soluble on expression in E. coli; label from the status in PepcDB or PDB records

Sequence	soluble on expression in E. coli
MSTSSLRRQMKNIVHNYSEAEIKVREATSNDPWGPSSSLMSEIADLTYNVVAFSEIMSMIWKRLNDHGKNWRHVYKAMTLMEYLIKTGSERVSQQCKENMYAVQTLKDFQYVDRDGKDQGVNVREKAKQLVALLRDEDRLREERAHALKTKEKLAQTATASSAAVGSGPPPEAEQAWPQSSGEEELQLQLALAMSKEEADQEERIRRGDDLRLQMAIEESKRETGGKEESSLMDLADVFTAPAPAPTTDPWGGPAPMAAAVPTAAPTSDPWGGPPVPPAADPWGGPAPTPASGDPWRPAAPAGPSVDPWGGTPAPAAGEGPTPDPWGSSDGGVPVSGPSASDPWTPAPAFSDPWGGSPAKPSTNGTTAGGFDTEPDEFSDFDRLRTALPTSGSSAGELELLAGEVPARSPGAFDMSGVRGSLAEAVGSPPPAATPTPTPPTRKTPESFLGPNAALVDLDSLVSRPGPTPPGAKASNPFLPGGGPATGPSVTNPFQPAPPATLTLNQLRLSPVPPVPGAPPTYISPLGGGPGLPPMMPPGPPAPNTNPFLL	soluble
MSTVSGLKRPQSSEKNHRDRVFVRATRGKVQKVVREQYLRNDIPCQSRACPLCRSKLPKDSRGNVLEPILSEKPMFLEKFGHHYLIPDSNIFYHCIDALEHPNNFFDVIILQTVFSEISSKSIPLYNRMKRLCQEKTKRFTPFSNEFFVDTFVERLDDESANDRNDRAIRNAASWFASHLASLGIKIVLLTDDRENARLAAEQGIQVSTLKDYVQYLPDSEILLDMVSAIADAIASKEQVESGTKNVYELHWSMSRLLACIKNGEVHKGLINISTYNYLEGSVVVPGYNKPVLVSGRENLNRAVQGDIVCIQILPQDQWKTEAEEIADDDEDVVVSTAAEPDSARINDLELITKRNAHPTAKVVGILKRNWRPYVGHVDNATIAQSKGGSQQTVLLTPMDRRVPKIRFRTRQAPRLVGRRIVVAIDLWDASSRYPEGHFVRDLGEMETKEAETEALLLEYDVQHRPFPKAVLDCLPEEGHNWKVPADKTHPLWKNRKDFRDKLICSIDPPGCQDIDDALHACVLPNGNYEVGVHIADVTHFVKPNTSMDSEAASRGTTVYLVDKRIDMLPMLLGTDLCSLRPYVERFAFSCIWEMDENANIIKVHFTKSVIASKEAFSYADAQARIDDQKMQDPLTQGMRVLLKLSKILKQKRMDEGALNLASPEVRIQTDNETSDPMDVEIKQLLETNSLVEEFMLLANISVAQKIYDAFPQTAVLRRHAAPPLTNFDSLQDILRVCKGMHLKCDTSKSLAKSLDECVDPKEPYFNTLLRILTTRCMLSAEYFCSGTFAPPDFRHYGLASPIYTHFTSPIRRYADVLAHRQLAAAIDYETINPSLSDKSRLIEICNGINYRHRMAQMAGRASIEYYVGQALKGGVAEEDAYVIKVFKNGFVVFIARFGLEGIVYTKSLSSVLEPNVEYVEDEYKLNIEIRDQPKPQTVQIQMFQQVRVRVTTVRDEHSGKQKVQITLVY	soluble
MSVDLKRGETLPIHVNMTFPSLPCDVLSVDAIDMSGKHEVDLDTNIWKLRLNSHGHIIGTEYISDLVEKGHEHDGKEEHKNETETEALNILGFDQAAETMIKKVKQALADGEGCRVYGVLDVQRVAGNFHISVHGLNIYVAQMIFGGSKNVNVSHMIHDLSFGPKYPGIHNPLDDTNRILHDTSGTFKYYIKIVPTEYRYLSKDVLSTNQYSVTEYFTPMTEFDRTWPAVYFLYDLSPITVTIKEERRSFLHLITRLCAVLGGTFALTGMLDRWMFRFIESFNKKPSTRA	soluble
MSVDMNSQGSDSNEEDYDPNCEEEEEEEEDDPGDIEDYYVGVASDVEQQGADAFDPEEYQFTCLTYKESEGALNEHMTSLASVLKVSHSVAKLILVNFHWQVSEILDRYKSNSAQLLVEARVQPNPSKHVPTSHPPHHCAVCMQFVRKENLLSLACQHQFCRSCWEQHCSVLVKDGVGVGVSCMAQDCPLRTPEDFVFPLLPNEELREKYRRYLFRDYVESHYQLQLCPGADCPMVIRVQEPRARRVQCNRCNEVFCFKCRQMYHAPTDCATIRKWLTKCADDSETANYISAHTKDCPKCNICIEKNGGCNHMQCSKCKHDFCWMCLGDWKTHGSEYYECSRYKENPDIVNQSQQAQAREALKKYLFYFERWENHNKSLQLEAQTYQRIHEKIQERVMNNLGTWIDWQYLQNAAKLLAKCRYTLQYTYPYAYYMESGPRKKLFEYQQAQLEAEIENLSWKVERADSYDRGDLENQMHIAEQRRRTLLKDFHDT	soluble
MSVHPAVQSLCEQPIDTIGLTAVSAVASALGDVSTATDLIQRPEQEKALHDLLKKCMSILNNSGKNSALRLACLECLYVLSQPPIPAFRTGLLCNTLNSVNSSVEEMLARTGPSEAESSSSAREMFTVLVFRFTNYDTKVARLLLQHMCDGDVGTMMQTLLRVMVQHCETCEWPLLQAALQSLYELTVPTTYYATGKDGAAEPSFDSAATATGSSLQSFTVESFQDRIAVLLTEMRNHRLLEKLLASLRLSWHESTHNRSPPSLAQGCAESVALGALGCPDVAHTVTSASAEQQMELLNWLSAFTLLCRALDNMVEFCRDAKLAREVRARLLSDPSCHDWLASAAVPAVIAAIQVWMSDDGASATPAAISDGSAGPFATAKVKLSLLTAAVTLLRLLRFALYKPAMGFTAALLSSMGCLAAQVQRGEPHLRLQYGGMQVMLLTVECLVNMNAVAVTSPVNLSESYRGLLRTIAADKTRCTLSNCSSDVSSDHGAVAERQPDALMPVAEWFILCVREEESPFCDIDSGNASVALLHECFASEEARLQDAADRVADLAALESQLAMMQNFLLLMTLTELLSGLPDGGLERLTQPGPRRRNSATDAEQKPPNNSDSSSRRCKLSKKKVSHHPAAYVCDLTGKLMREPVVLKGGHRFEFDALQNVILQVGHVDPISGESIDEDVEVNIPLQQEIAAYRVKRASEKGGS	not soluble
MSVLGFDIGNLNCYIGVARQGGIEVITNDYSLHATPACVSFGPKDRSMGVAARQAVTTNIKNTVINFKHLIGRKFSDPVAQRFIPFIPCKVVKLPNDDIGVQVSYLGEPHTFTPEQVLAALLTKLRTIVESQLSDVKKVSDCVLAVPSYFTDVQRRAVLSAIQYAGLNSLRIVNETTAIALAYGIYKQDLPEEDAKSRNVVFLDIGHSSTQASLVAFNRGKLQMVNTSYDLESGGIWFDALIREHFRKEFKTKYGIDAATSPRPWLRLLDECERVKKQMSANQTPIPLNIECFMEDKDVTGKMQRQEFEDLAAPIFNRIKQVLINLFADGVSIKPEEIDEIEIVGGSSRIPMIREIVKDLFGKEPKTTMNQDEAVARGAAMQCAILSPTFRVREFAIKDTQPYRIRLSWNSTGENGGENDVFSPRDEVPFSKLVSLLRSGPFNVEAHYAQPNVVPHNQVHIGSWKVNGARPGADGGNQKVKVKVRVNPDGIFTIASATMYEPRIVEEVPAEAMEVDGDAKTEAPAEPLEPVKKTKLVPVDLEVIESIPVSYDVQKFHNLELQMQESDAREKAKADAKNSLEEYVYEMRDKVSDQYAEFITPAAADEFRSVLTSTEDWLYDEGEDAERDVYEKRLSELKAVGTPVVERYRESETRKPAFDSFDQSIMRVRKAYEDYANGGPTYAHLDSKEMEKVINAIEDKKKWLDEARHKQETRSKTDAPVVFTEEILQNKNVFENVVNPILNKKKPAAPAPPKKEEPQPAAGDQPQSQPGEMDVD	not soluble
MSWQNQGMQALIPVINRVQDAFSQLGTSVSFELPQIAVVGGQSAGKSSVLENFVGKDFLPRGSGIVTRRPLILQLIQDRNEYAEFLHKKGHRFVDFDAVRKEIEDETDRVTGQNKGISPHPINLRVFSPNVLNLTLIDLPGLTKVPVGDQPADIEQQIRDMILTFINRETCLILAVTPANSDLATSDALKLAKEVDPQGLRTIGVLTKLDLMDEGTDAREILENKLFTLRRGYVGVVNRGQKDIVGRKDIRAALDAERKFFISHPSYRHMADRLGTSYLQHTLNQQLTNHIRDTLPTLRDSLQKKMFAMEKDVAEYKNYQPNDPGRKTKALLQMVTQFNADIERSIEGSSAKLVSTNELSGGARINRLFHERFPFEIVKMEIDEKEMRKEIQYAIRNIHGIRVGLFTPDMAFEAIAKKQITRLKEPSLKCVDLVVNELANVIRQCADTMARYPRLRDELERIVVSHMREREQIAKQQIGLIVDYELAYMNTNHEDFIGFSNAEAKASQGQSAKKNLGNQVIRKGWLSLSNVSFVRGSKDNWFVLMSDSLSWYKDDEEKEKKYMLPLDGVKLKDIEGGFMSRNHKFALFYPDGKNIYKDYKQLELGCTNLDEIDAWKASFLRAGVYPEKQKAQEDESQQEMEDTSIDPQLERQVETIRNLVDSYMRIITKTIKDLVPKAVMHLIVNQTGEFMKDELLAHLYQCGDTDALMEESQIEAQKREEMLRMYHACKEALRIISEVNMSTLGDQPPPLPMSDYRPHPSGPSPVPRPAPAPPGGRQAPMPPRGGPGAPPPPGMRPPPGAPGGGGGMYPPLIPTRVPTPSNGAPEIPARPQVPKRPF	not soluble
MSWWCCIPKSKKGENPYSHGVSGIPPEKNIRLFSYSELRSATENFNRSNKIGRGGFGTVYKGTIRNGRDVAVKVLSAESRQGVREFLTEIDVITNVKHPNLVELIGCCVEGNNRILVYEYLENSSLDRALLGSNSEPANFTWSIRSAICIGIAKGLAYLHEEIASPIVHRDIKASNILLDKLYNPKIGDFGLAKLFPDNITHISTRVAGTTGYLAPEYAWHGQLTKRADIYSFGVLVLEIVSGKSSSRSLLADDKILLEKAWELHEVGKLKELVDSEMGDYPEEEVLRYIKTALFCTQAAAARRPSMPQVVTMLSKPIRINERELTAPGYIHDYNGTVSKATNSSNSRFKHSASDTSDMFSTVVPPTVSEISPR	not soluble
MSYLSAIENQENMVVKQEIKIEEEDDDYPLSTIDMAVQALIRNPHHNVDYICGVMIFGGSKNQFNELLNPVVVAQMSKQRKQKKVPVKNPAGEAKRGRGRPRKQSSEEKVQIPKVVVKFEPKKRGRPAGAAKWSQEVAVVLQKQPQRKRGRPLKIAKKIEPVFHQKKESKQNSEEKALIQQEAVKGEPKNRGRPCGAAERSREVVKKLQKQPPRKRGRPLKIAKNMEPEINQKKDTKQVHVCPICTLASKNGTCLCTKCQKWVHLKCTGIRSKQWNSQFQCKNCTC	not soluble
MSYQGRARKFLESASIDVGDMVLVEKPDVTYEGMVLDRADDADDRHIVLKLENGYNIGVEISDARIELLEKGSEPRIELPPVEAAEDPELPDVSIISTGGTVASIIDYRTGAVHPAFTADDLLRANPELLDIANIRGRAVFNILSENMKPEYWVETARAVYGEIKDGADGVVVAHGTDTMHYTSAALSFMLRTPVPVVFTGAQRSSDRPSSDASLNIQCSVRAATSEIAEVTVCMHATMDDLSCHLHRGVKVRKMHTSRRDTFRSMNALPLAEVTPDGIKILEENYRKRGSDELELSDRVEERVAFIKSYPGISPDIIKWHLDEGYRGIVIEGTGLGHCPDTLIPVIGEAHDMGVPVAMTSQCLNGRVNMNVYSTGRRLLQAGVIPCDDMLPEVAYVKMCWVLGQTDDPEMAREMMRENIAGEINERTSIAYFRG	soluble
MSYQVTTLQARKDMARARLGQIPLPRITHIAFGTGGHLPGDVLTPVKPSETATSLEQEVARFPIASAVLKNDTTVEYKVVIPKGALSGVVLTEQALIDQNGKVVAIKTFGAKKKEPEDEFTFTWEEDF	not soluble
MTAARSAPSPAGAPRPGLRERKKTRTREAIRAATYGLIRQQGYEATTVEQIAERAEVSPSTVLRYFPTREDIVLTDEYDPVMAAELAARPAGEPWSDSLRHVLRKALGLGAGEEAELIRLRTRLLAEVPAVRARMLENMSDTGRMLARAIADRTGLDPDGLEVRIVSMSLVGGLMEVSRYWAEHDHEESLAELVDRALDALENGLPALRESDRESDREGDRGGHREDRREGPRKD	soluble
MTAESPTIRLERYSERHVEGLTALYNDPAVARQVLQMPYQSVEQRRKRLHDSADDDRLLILVALHQGDVIGSASLEQHPRIRRSHSGSIGMGVAVAWQGKGVGSRLLGELLDIADNWMNLRRVELTVYTDNAPALALYRKFGFETEGEMRDYAVRDGRFVDVYSMARLRRVEGRVGE	soluble
